# Measured values taken from the nanobody polyreactivity screen of Harvey et al. (2022).
# Test: yeast display, Sf9 membrane polyspecificity reagent, FACS + sequencing; frameworks hold sequencing errors
# Outline: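 Sorting gates, low and high (top ~1%), were placed on anti-HA fluorescence to track expression and on streptavidin fluorescence to track reagent binding. A clone's polyreactivity label is taken from the gate it came out of. The reagent was 10% biotinylated, detergent-solubilized Sf9 membrane, applied for 1 hour at 4 °C to galactose-induced yeast display cells.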
row,Sequence,polyreactivity (PSR sort gate)
1,QVQLVESGGGLVQAGGSLRLSCAASGFTFYPYVMGWYRQAPGKERELVAAINSGGARTYYADSVKGRFTISRDNAKNTVYLQMNSLKPEDTAVYYCAARTVVGGRIYYYWGQGTQVTVSS,high polyreactivity
2,QVQLVESGGGLVQAGGSLRLSCAASGSTFGYYAMGWYRQAPGKERELVAAITDSGGITHYADSVKGRFTISRDNAKNTVYLQMNSLKPEDTAVYYCYARYLGYGWFDYWGQGTQVTVSS,low polyreactivity
3,QVQLVESAGGLVQAGGSLRLSCAASGFTFRSNAIGWYRQAPGKQRELVAAITSRGGSTYYADSVKGRFTISRDNAKNTVYLQMNSLKPVDTAVYYCAAEGRSRKFDYWGQGTQVTVSS,high polyreactivity
4,QVQLVESGGGLVQAGGSLRLSCAASGITFVWNAMGWYRQAPGKVREFVAGITYRSGRTYYADSVKGRFTISRDNAKNTVYLQMNSLKPEETAGYYCATTPRYTTYNYWGQGTQVTVSS,high polyreactivity
5,QVQLVESGGGLVQAGGSLRLSCAASGITFYYNVMGWYRQAPGKERELVASITSGGSTYYADSVKGRFTISRDNAKNTVYLQMNSLKPEDTAVSYCNKDHALYVDFSYDYWGQGTQVTVSS,low polyreactivity
6,QVQLVESGGGLVQAGRSLRLSCAASGSNFLTNTMGWYRQAPGKERELVAAITLRGGRTYYADSVKGRFTISRDNAKNTVYLHMNSLKPEDTAVYYCNARNYYYPSDRDYWGQGTQVTGSS,low polyreactivity
7,QVQLVESGGGLVQAGGSLRLSCPASGSIFYFYGMGWYRQAPGKEREFVAAISLYGGSTYYADSVKGRFTISRDNAKNTVYFQMNSLKPEDTAVYYCAARAWSYYHGKEDYWGQGTQVTVSS,high polyreactivity
8,QVQLVESGGGLVQAGGSLRLSFPASGFTFFGYAMGWYRQAPGKERELVAAISTIDGDTYYADSVKGRFTISRDNAKNTVYLQMNSLKPEDTAVYYCAADDYIDGDDYWGQGTQVTVSS,low polyreactivity
9,QVQLVESGGGLVQAGGSLSLSCAASGSIYWYAMGWYRQAPGKERELVSAISRRGGSTYYADSLKGRFTISRDNAKNTVYLQMNSLKPEDTAVYYCAVGIYGEYDYWGQGTQVTVSS,high polyreactivity
10,QVQLVESGGGLVQAGGSLRLSCAASGRIFGVYGMGWYRQAPGKERELVAAISWSGATTYYADSVKGRFTISRDNAKNTVYLQMNSLKPEDTEVYYCAADFGWFYDGLAVWFIRILGVYWGQGTQVTVSS,low polyreactivity
11,QVQLVESGGGLVQAGGSLRLSCAASGFTFAFYAMGWYRQAPGKERELVAAISWDGVTTYYADSVKGRFTISRDNAKNTVYLQMNSLKPEDTAVYYCNVQWYGGYDYWGQGTQVTVSS,low polyreactivity
12,QVQLVESGGGLVQAGGSLRLSCAASGSIFRGNSMGWYRQAPGKERELVAVITWSGGSTYYADSVKGRFTISRDNAKNTVYLQMNSLKPEDTAVYYCNAARKQRVYFAGDYWGQGTQVTVSS,high polyreactivity
13,QVQHVESGGGLVQAGGSLRLSCAASGRISQIYAMGWYRQAPGKERELVARITSTDSTYYADSVKGRFTISRDNAKNTVYLQMNSLKPEDTAVYYCAASWWSPYDYWGQGTQVTVSS,low polyreactivity
14,QVQLVESGGGFVQAGGSLRFSCAAYGSTFNQYAMGWYRQAPGKEREFVASITFSGGRTYYADSVQGRFTLSRDNEQNTVYLQMNSLKTEDPAVSYCNAVGYTPRKPSKFDYRGQGTQVTVSS,low polyreactivity
15,QVQLVESGGGLVQAVGSLRLSCAASGGIFTLYVMGWYRQAPGKERELVAAISRTGGSTYYADSVKGRFTISRDNAKNTVYLQMNSLKPEDTAVYYCAALYRGGTRYGGYDYWGQGTQVTVSS,low polyreactivity
16,QVQLVESGGGLVQAGGSLRLSCAASGSILSSYAMGWYRQAPGKERELVAAISKSGTRTYYADSVKGRFTISRDNAKNTVYLQMNSLKPEDTAVYYCAVVYYGSIFVLEYDYWGQGTQVTVSS,high polyreactivity
17,QVQLVESGGGLVQAGGSLRLSCAASGSTFYAYAMGWYRQEPGKERELVAAINSVGSTYYADSVKGRFTISRDNAKNTVYLQMNSLKPEDTAVYYCARGVDYPTSQPPYFRHDYWGQGTQVTVSS,low polyreactivity
18,QVQLVESGGGLVQAGGSLRLSCAASGRTFYVYAMGWYRQAPGKERELVAAITYTGGDTYYADSVKGRFTISRDNAKNTVYLQMNSLKPEDTAVYYCAADFGPYYRFDYWGQGTQVTVSS,low polyreactivity
19,QVQLVESGGGLVQAGGSLRLSCAASGRIFSVYAMVWYRQAPGKEREFVAAITKGGVGTYYADSVKGRFTISRDNAKNTVYLQMNSLKPEDTAVYYFAARHYYGADRYYSWGQGTQVTVSS,high polyreactivity
20,QVQLVESGGGLVQAGGSLRLSCAASGSIFTEYAMGWYRQAPGKERELVAAISWSGATTYYADSVKGRFTISRDNAKNTVYLQMNSLKPEDTAVYYCAARWANRSYEYWGQGTQVTVSS,low polyreactivity
21,QVQLVESGGGLVQAGGSLRLSCAASGGIFADYAMGWYRQAPGKERELVAAISSGGNTNYADSVKGRFTISRDNAKNTVYLQMNSLKPEDTAVYYCNRDTSYYRYVYYEGNDYWGQGTQVTVSS,low polyreactivity
22,QVQLEESGGGLVQAGGSLRLSCAASGSIFYDYAMGWYRQAPGKERELVAAISKSDGSTYYADSVKGRFTISRDNAKNTVYLQMNSLKPEDTAVYYCNADLIYSYPPEYDYWGQGTQVTVSS,high polyreactivity

row,Sequence,polyreactivity (PSR sort gate)
1,QVQLVESGGGLVQAGGSLRLSCAASGGILVGYDMGWYRQAPGKERELVAAINYSGGSTNYADSVKGRFTISRDNAKNTVYLQMNSLKTEDTALYYCAARSTARYGYWGQGTQVTVSS,low polyreactivity
2,QVQLVESGGGLVQAGGSLRLSCAASGRIYYYYTMGWYRQAPGKERELVAGISRSGDRTYYADSVKGRFTISRDIAKNTVYLQMNSLKPEDTAVYYCATRWSSARMDYWGQGTQVTVSS,high polyreactivity
3,QVQLVESGGGLVQAGASLRLSCAASGSIFAAYTMGWYRQAPGTERELVAAISVSTVSTYYADSVKGRFTISRDNAKNTVFLQMNSLKAEVTAVYYCNADATDSYTEKDEHDSWGQGTQLTVSS,low polyreactivity
4,QVQLVESGGGLVQAGGSLRLSCAASGITFRRYVMGWYRQAPGKERELVARISSDGSTSYADSVKGRFTISRNNAKNTVYLQMNSLKPEDTAVYYCAAVHQWYVRYSTGYNYWGQGTQVTVSS,high polyreactivity
5,QVQLVESGGGLVQAGGSLRLSCAASGRIFGAYAMGWYRQAPGKERELVAAITSRGGNTYYADSVKGRFTISRDNAKNTVDLQMNSLKPEDTAVYYCAARHDKRRQYYFGQSAFDYWGQGTQVTVSS,low polyreactivity
6,HVQHVDSGGGLVQAGGSLRLSFAAYGRIFVNNAMGWYRQATGKERELVAAISQNGGRTYYADSVKGRFTISRDNAKNTVYLQMNSLKPEDTAVYYCAAGQARAGLIGGYWGQGTQVTVSS,high polyreactivity
7,QVHLVESGGGLVQAGGSLRLSCAASAFIFNRNAMGGYRQAHGKERELVAAISRSGGRTYYADSVKGRFTISRDHAKNTVYIQMNSLKPEDTAVYYCATEGYHGEFDYWGQGTQVTVSS,high polyreactivity
8,QVQLVESGGGLVQAGGSLRLSCAASGRTFYSYVMGWYRQAPGKEREVVAAIPRSGGSTNYADSVKGRFTISRDNAKNTVYFQMHSRKPEDTAVYYCASRAGRTLRTHYDYWGQGTQGTVSS,high polyreactivity
9,QVQLVESGGGLDQAGGSLRLTCAATGRIILGYAMGWYRQAPGKEREFVAANSRGGTSTYYADSVKGRFTISRDNAKNTVYLQMNSLKPEDTAVYYCAVDVPPYRLVRNYYEYDYWGQGTQVTVSS,high polyreactivity
10,QVQLVESGGGIVQAGGSLRLSCAASGRIFGGNSMGWYRQAPGKERELVAAITTSGGSTYYADSVKGRFTISRDNAKNTVYLQMNSLKPEDTAVYSCAAGIGDSYWYRRYGYWGQGTQVTVSS,low polyreactivity
11,QVQLVDSGGGLVQAGGSLRLSCAASGFIFGKYAMGWYRPAPGKEREFVAAITGNGGSTYYADSVKGRFTISRDNAKNTVYLQMNSLKPEDTAVYYCAADASWELFAWAHYDYWGQGTQVTVSS,low polyreactivity
12,QVQLVESGGGLVQAGGSLRLSCASSGSIFPEYDMVWYRQAPGKERELVASISSGGSSTYYADSVKGRFTISRDNAMNTVYLQMNSLKPEATAVYYCARRRSYKRGFDYWGQGTQVTVSS,low polyreactivity
13,QDQLVESGGGLVQAGGSLRLSCAASGITFRYYAMGWYRQAPGKERELVAAITGGGGSTYADSVKGRFTISRDNAKNTVYLQMNSLKPEDTAVYYCNATPRARSLPLRYQHDYWLQGTQVTVSS,low polyreactivity
14,QVQLVESGGGLVQAGGSLRLSCAASGSTFLLYDKGWYRQAPGKERELVAAITWSGGSTYYADSVKGRFTISRDNAKNTVYVQMNSLIPEDTAVYYCAADSLGDRYYYWGQGTQVTVSS,low polyreactivity
15,QVQLVESGGGLVQAGGSLRFSCAASGRIFYPYAMGWYRQAHGKERELVAAIRRSGVDTYYADSVKGRFTISRDNAKNTVYLQMNSLKPEDTAVYYCAADPYWFFPHYDSWGQGTQVTVSS,low polyreactivity
16,QVQLVESGGGLVQAGGSLRLSCAASGRILSYYAMGWYRQAPGKERELVAVIRRGASTYADSVKGRFTISRDNAKNTVYLQMNSLKPEDTAVYYCNAERVVGLSATKYGYWGQGTQVTVSS,low polyreactivity
17,QVQLVESGGGLVQAGGSLRLSCAASGRIFTPYARGWYRQAPGKERELVAAISGRGGSTYYADSVKGRFTISRDNAKNTVYLQMNSLKPEDTAVYYCAATYFYVYDYGLDYWGQGTQVTVSS,high polyreactivity
18,QFQLVESGGGLVQAGGSLRLSCAASGSTLELNAMGWYIQAPGKERELVAAITSSGGRTYYADSVKGRFTISRDNAKNTVYLQMNSLKPEDTAVYYCAAEPGQHRVVDRYDYWGQGTQVTVSS,low polyreactivity
19,QVQLVESGGGLVQAGGSLRLSCGASGSTFNWYTMGWYRQAPGKERELVDAISMNGGRTYYADSVKWRFTISRDKAKNTVYLQMNSLKPEDTAVYYCAAQISFYFAQYNLARFRGYYWGQGTQVTVSS,high polyreactivity
20,QVQLVESGGGLVQAGGSLRLSCAASGRTFSHYAMGWYRKAPGKERELVDTITRNGGITYYADSVKGRFTISRDNAKNTVYLQMNSLKPEDTAVYYCNTETYHVRRLFDYWGQGTQVTVSS,low polyreactivity
21,QVQLVESGGGLVQAGGSLRLSCAASGITFDYYSMGWYRQAPGTERELVAAISWGGGSTYYADSVKGRFTISRDNAKNTVYLQMNSLKPEDTAVYYCAADIVSSPSSYVPPGDYWGQGTQVTVSS,low polyreactivity
